Test results: the supplement of paper PMC5998384

Key:
HeLa Kyoto [1] = assay: solubility in G1/S (NP-40 vs SDS abundance) (log2 ratio); higher = more soluble; conditions: cell cycle stage: G1/S
HeLa Kyoto [2] = assay: melting temperature (median over replicates), in situ; higher = more thermally stable
HeLa Kyoto [3] = assay: solubility change mitosis vs G1/S (difference of NP-40 vs SDS log2 ratios) (log2 ratio difference); higher = more soluble in mitosis
HeLa Kyoto [4] = assay: thermal stability score vs G1/S (z-score of summed log2 fold changes over temperatures); higher = more thermally stable than in G1/S
[5] = cell cycle stage: early G1 (4.5 h after nocodazole release)
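Throughout, for melting temperature (median over replicates), in situ: HeLa Kyoto cells synchronized by double thymidine or nocodazole block, proteins quantified by TMT10plex mass spectrometry, three independent biological replicates.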
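Throughout, for solubility change mitosis vs G1/S (difference of NP-40 vs SDS log2 ratios): synchronized HeLa Kyoto cells (double thymidine block for G1/S, nocodazole release for mitosis), protein amounts in NP-40 versus SDS lysates quantified by mass spectrometry, three biological replicates.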
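Throughout, for solubility in G1/S (NP-40 vs SDS abundance): HeLa Kyoto cells arrested at G1/S by double thymidine block, proteins quantified by TMT10plex mass spectrometry in mild NP-40 versus SDS extracts, three biological replicates.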
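Throughout, for thermal stability score vs G1/S (z-score of summed log2 fold changes over temperatures): synchronized HeLa Kyoto cells, proteins quantified by TMT10plex mass spectrometry, three biological replicates, mitosis taken 0.5 h after nocodazole release, G1/S directly after double thymidine block.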

Row | Sequence | solubility in G1/S (log2) (HeLa Kyoto [1]) | melting temperature (HeLa Kyoto [2]; cell cycle stage: mitosis) [°C] | solubility change mitosis (log2) (HeLa Kyoto [3]) | thermal stability score (HeLa Kyoto [4]; [5]) | thermal stability score (HeLa Kyoto [4]; cell cycle stage: mitosis) | melting temperature (HeLa Kyoto [2]; cell cycle stage: G1/S) [°C]
1 | MADTDLFMECEEEELEPWQKISDVIEDSVVEDYNSVDKTTTVSVSQQPVSAPVPIAAHASVAGHLSTSTTVSSSGAQNSDSTKKTLVTLIANNNAGNPLVQQGGQPLILTQNPAPGLGTMVTQPVLRPVQVMQNANHVTSSPVASQPIFITTQGFPVRNVRPVQNAMNQVGIVLNVQQGQTVRPITLVPAPGTQFVKPTVGVPQVFSQMTPVRPGSTMPVRPTTNTFTTVIPATLTIRSTVPQSQSQQTKSTPSTSTTPTATQPTSLGQLAVQSPGQSNQTTNPKLAPSFPSPPAVSIASFVTVKRPGVTGENSNEVAKLVNTLNTIPSLGQSPGPVVVSNNSSAHGSQRTSGPESSMKVTSSIPVFDLQDGGRKICPRCNAQFRVTEALRGHMCYCCPEMVEYQKKGKSLDSEPSVPSAAKPPSPEKTAPVASTPSSTPIPALSPPTKVPEPNENVGDAVQTKLIMLVDDFYYGRDGGKVAQLTNFPKVATSFRCPHCTKRLKNNIRFMNHMKHHVELDQQNGEVDGHTICQHCYRQFSTPFQLQCHLENVHSPYESTTKCKICEWAFESEPLFLQHMKDTHKPGEMPYVCQVCQYRSSLYSEVDVHFRMIHEDTRHLLCPYCLKVFKNGNAFQQHYMRHQKRNVYHCNKCRLQFLFAKDKIEHKLQHHKTFRKPKQLEGLKPGTKVTIRASRGQPRTVPVSSNDTPPSALQEAAPLTSSMDPLPVFLYPPVQRSIQKRAVRKMSVMGRQTCLECSFEIPDFPNHFPTYVHCSLCRYSTCCSRAYANHMINNHVPRKSPKYLALFKNSVSGIKLACTSCTFVTSVGDAMAKHLVFNPSHRSSSILPRGLTWIAHSRHGQTRDRVHDRNVKNMYPPPSFPTNKAATVKSAGATPAEPEELLTPLAPALPSPASTATPPPTPTHPQALALPPLATEGAECLNVDDQDEGSPVTQEPELASGGGGSGGVGKKEQLSVKKLRVVLFALCCNTEQAAEHFRNPQRRIRRWLRRFQASQGENLEGKYLSFEAEEKLAEWVLTQREQQLPVNEETLFQKATKIGRSLEGGFKISYEWAVRFMLRHHLTPHARRAVAHTLPKDVAENAGLFIDFVQRQIHNQDLPLSMIVAIDEISLFLDTEVLSSDDRKENALQTVGTGEPWCDVVLAILADGTVLPTLVFYRGQMDQPANMPDSILLEAKESGYSDDEIMELWSTRVWQKHTACQRSKGMLVMDCHRTHLSEEVLAMLSASSTLPAVVPAGCSSKIQPLDVCIKRTVKNFLHKKWKEQAREMADTACDSDVLLQLVLVWLGEVLGVIGDCPELVQRSFLVASVLPGPDGNINSPTRNADMQEELIASLEEQLKLSGEHSESSTPRPRSSPEETIEPESLHQLFEGESETESFYGFEEADLDLMEI [POGZ] | -0.704 | 49.5 | 0.341 | 1.1 | 2.58 | 
2 | MADTLPSEFDVIVIGTGLPESIIAAACSRSGRRVLHVDSRSYYGGNWASFSFSGLLSWLKEYQENSDIVSDSPVWQDQILENEEAIALSRKDKTIQHVEVFCYASQDLHEDVEEAGALQKNHALVTSANSTEAADSAFLPTEDESLSTMSCEMLTEQTPSSDPENALEVNGAEVTGEKENHCDDKTCVPSTSAEDMSENVPIAEDTTEQPKKNRITYSQIIKEGRRFNIDLVSKLLYSRGLLIDLLIKSNVSRYAEFKNITRILAFREGRVEQVPCSRADVFNSKQLTMVEKRMLMKFLTFCMEYEKYPDEYKGYEEITFYEYLKTQKLTPNLQYIVMHSIAMTSETASSTIDGLKATKNFLHCLGRYGNTPFLFPLYGQGELPQCFCRMCAVFGGIYCLRHSVQCLVVDKESRKCKAIIDQFGQRIISEHFLVEDSYFPENMCSRVQYRQISRAVLITDRSVLKTDSDQQISILTVPAEEPGTFAVRVIELCSSTMTCMKGTYLVHLTCTSSKTAREDLESVVQKLFVPYTEMEIENEQVEKPRILWALYFNMRDSSDISRSCYNDLPSNVYVCSGPDCGLGNDNAVKQAETLFQEICPNEDFCPPPPNPEDIILDGDSLQPEASESSAIPEANSETFKESTNLGNLEESSE [CHM] | -0.115 | 53.1 | -0.191 | -0.484 | -1.2 | 52.9
3 | MAEAAAAAGGTGLGAGASYGSAADRDRDPDPDRAGRRLRVLSGHLLGRPREALSTNECKARRAASAATAAPTATPAAQESGTIPKKRQEVMKWNGWGYNDSKFIFNKKGQIELTGKRYPLSGMGLPTFKEWIQNTLGVNVEHKTTSKASLNPSDTPPSVVNEDFLHDLKETNISYSQEADDRVFRAHGHCLHEIFLLREGMFERIPDIVLWPTCHDDVVKIVNLACKYNLCIIPIGGGTSVSYGLMCPADETRTIISLDTSQMNRILWVDENNLTAHVEAGITGQELERQLKESGYCTGHEPDSLEFSTVGGWVSTRASGMKKNIYGNIEDLVVHIKMVTPRGIIEKSCQGPRMSTGPDIHHFIMGSEGTLGVITEATIKIRPVPEYQKYGSVAFPNFEQGVACLREIAKQRCAPASIRLMDNKQFQFGHALKPQVSSIFTSFLDGLKKFYITKFKGFDPNQLSVATLLFEGDREKVLQHEKQVYDIAAKFGGLAAGEDNGQRGYLLTYVIAYIRDLALEYYVLGESFETSAPWDRVVDLCRNVKERITRECKEKGVQFAPFSTCRVTQTYDAGACIYFYFAFNYRGISDPLTVFEQTEAAAREEILANGGSLSHHHGVGKLRKQWLKESISDVGFGMLKSVKEYVDPNNIFGNRNLL [AGPS] | -0.0393 | 52.9 | -0.139 | 0.703 | 1.37 | 52.8
4 | MAEAEGESLESWLNKATNPSNRQEDWEYIIGFCDQINKELEGPQIAVRLLAHKIQSPQEWEALQALTVLEACMKNCGRRFHNEVGKFRFLNELIKVVSPKYLGDRVSEKVKTKVIELLYSWTMALPEEAKIKDAYHMLKRQGIVQSDPPIPVDRTLIPSPPPRPKNPVFDDEEKSKLLAKLLKSKNPDDLQEANKLIKSMVKEDEARIQKVTKRLHTLEEVNNNVRLLSEMLLHYSQEDSSDGDRELMKELFDQCENKRRTLFKLASETEDNDNSLGDILQASDNLSRVINSYKTIIEGQVINGEVATLTLPDSEGNSQCSNQGTLIDLAELDTTNSLSSVLAPAPTPPSSGIPILPPPPQASGPPRSRSSSQAEATLGPSSTSNALSWLDEELLCLGLADPAPNVPPKESAGNSQWHLLQREQSDLDFFSPRPGTAACGASDAPLLQPSAPSSSSSQAPLPPPFPAPVVPASVPAPSAGSSLFSTGVAPALAPKVEPAVPGHHGLALGNSALHHLDALDQLLEEAKVTSGLVKPTTSPLIPTTTPARPLLPFSTGPGSPLFQPLSFQSQGSPPKGPELSLASIHVPLESIKPSSALPVTAYDKNGFRILFHFAKECPPGRPDVLVVVVSMLNTAPLPVKSIVLQAAVPKSMKVKLQPPSGTELSPFSPIQPPAAITQVMLLANPLKEKVRLRYKLTFALGEQLSTEVGEVDQFPPVEQWGNL [GGA3] | 0.445 | 50.7 | -0.218 | 1.01 | 0.468 | 50.1
